Laboratory results reported in US20160129078A1, “Rhomboid Proteins and Uses Thereof” (Queen's University at Kingston, priority 2014, published 2016).

Test system: E. coli
Assay: Colony formation of At1g74130-expressing E. coli on agar with increasing ampicillin
Format: cell-based, Escherichia coli
Conditions: protein expressed in E. coli JM109(DE3) from pET20b; solid agar media; susceptibility at higher concentrations
Protocol: Introduction and expression of At1g74130 was tested in E. coli, by subcloning the corresponding cDNA sequence into a T7 promoter-containing plasmid vector (pET20b) and JM109(DE3), a bacterial strain commonly used for expressing foreign proteins. Two alternative splice variants of At1g74130 were derived by RT-PCR cloning and tested along with the full version of At1g74130, also derived by RT-PCR cloning (see, e.g., FIGS. 3, 4, and 5). The alternative splice variants designated 6/7 and 7/8 are shown in FIGS. 1C and 1D, respectively. A similar procedure was used to express the At1g25290 and UBAC2 variants (see FIGS. 6, 7, and 8).
Alterations to protein translocation were investigated using the plasmid-borne multicopy gene, β-lactamase. The level of β-lactamase is a sensitive monitor of protein translocation and is translocated into the periplasm, where it detoxifies the antibiotic ampicillin, thereby conferring ampicillin-resistance to cells. Because the level of antibiotic resistance conferred also reflects the level of protein transport activity, the level of ampicillin resistance was determined for At1g74130 expressing cells and compared to that of control vector-containing cells on solid agar media containing increasing concentrations of ampicillin. […]

B1: At1g74130 M: 7/8 M-form splice variant of Arabidopsis At1g74130 rhomboid protein (protein, listed as Arabidopsis thaliana)
chain: MHAIFCRRVAVGCSSPQLTKLVTKQASQSRHSLSHLLPFDLSSRFVPPYVVSRSARVHGFFAGKLGNTNLKLKFGNVMESRAGFFSSELPSHGFESGGFTGFQKRGWKSWINGANGVVFGLVIANAAVFTMWRVLGKDNMWMVKNFMLSRYSFMTGRIHTLITSGFSHVGATHIILNMMGLCYFGARIARSFGPRYLLKLYFAGALGGSVFFLSSHALSVISLKGQRVVPKDQLKVPIGKLGANGPVYAITLLDMLLYPKVTTYFGLMLRVPVFAGIYSLGLNIIKMLEVCMMGKTTIP
ampicillin concentration at which expressing cells form colonies: 1.5 mg/mL
